A word on the Kd: it is a measure of binding affinity in units of concentration. A higher Kd goes with weaker binding.

The data set has as its target E. coli RNA polymerase holoenzyme saturated with sigma70 (Escherichia coli) (UniProt P0A7Z4+P0A8V2+P0A8T7+P0A800+P00579). The experiment in a line: EMSA. The note with it: EMSA: 10 nM DNA, 0-170 nM RNAP, binding buffer (5X: 750 mM KCl, 0.5 mM DTT, 0.5 mM EDTA, 50 mM Tris pH 7.4; 1X = 150 mM KCl, 0.1 mM DTT, 0.1 mM EDTA, 10 mM …). (In general: Mobility shift assays separate free from complexed probe on a gel.)
“CCAGGATACATAGATTACCACAACTCCGAGCCCTTCCACCACCTATATTTGCTGCTCGTAAAAAAAAAACCTGACAGCTAGCTCAGTCCTAGGTATAATGCTAGCAGCTGTCACCGGATGTGCTTTCCGGTCTGATGAGTCCGTGAGGACGAAACAGCCTCTACAAATAATTTTGTTTAATAAGTCCAATAGTTTATAAGGAAAGAATTACCTATGCGTAAAGGCGAAGAGCTGTTCACTGGTGTCGTCCC (double strand) [J23108 + 1/2UP]” yielded a Kd of 0.022 µM. That is a double-digit nanomolar value.
With “CCAGGATACATAGATTACCACAACTCCGAGCCCTTCCACCACCTATATTTGCTGCTCGTAAAAAAAAAACTTGACAGCTAGCTCAGTCCTAGGTACTGTGCTAGCAGCTGTCACCGGATGTGCTTTCCGGTCTGATGAGTCCGTGAGGACGAAACAGCCTCTACAAATAATTTTGTTTAATAAGTCCAATAGTTTATAAGGAAAGAATTACCTATGCGTAAAGGCGAAGAGCTGTTCACTGGTGTCGTCCC (double strand) [J23102 + 1/2UP]”, the Kd amounted to 0.0455 µM.
Regarding “CCAGGATACATAGATTACCACAACTCCGAGCCCTTCCACCACCTATATTTGCTGCTCGTAAAAAAAAAACTTGACAGCTAGCTCAGTCCTAGGTATAATGCTAGCAGCTGTCACCGGATGTGCTTTCCGGTCTGATGAGTCCGTGAGGACGAAACAGCCTCTACAAATAATTTTGTTTAATAAGTCCAATAGTTTATAAGGAAAGAATTACCTATGCGTAAAGGCGAAGAGCTGTTCACTGGTGTCGTCCC (double strand) [J23119 + 1/2UP]”, the Kd was found to be 0.021 µM.
Substance “CCAGGATACATAGATTACCACAACTCCGAGCCCTTCCACCACCTATGGAAAATTTTTTTAAAAAAAAAACCTGACAGCTAGCTCAGTCCTAGGTATAATGCTAGCAGCTGTCACCGGATGTGCTTTCCGGTCTGATGAGTCCGTGAGGACGAAACAGCCTCTACAAATAATTTTGTTTAATAAGTCCAATAGTTTATAAGGAAAGAATTACCTATGCGTAAAGGCGAAGAGCTGTTCACTGGTGTCGTCCC (double strand) [J23108 + UP]” registered a Kd of 0.0314 µM.
Next, “CCAGGATACATAGATTACCACAACTCCGAGCCCTTCCACCACCTATGGAAAATTTTTTTAAAAAAAAAACTTGACAGCTAGCTCAGTCCTAGGTACTGTGCTAGCAGCTGTCACCGGATGTGCTTTCCGGTCTGATGAGTCCGTGAGGACGAAACAGCCTCTACAAATAATTTTGTTTAATAAGTCCAATAGTTTATAAGGAAAGAATTACCTATGCGTAAAGGCGAAGAGCTGTTCACTGGTGTCGTCCC (double strand) [J23102 + UP]”: 0.0448 µM; “CCAGGATACATAGATTACCACAACTCCGAGCCCTTCCACCACCTATGGAAAATTTTTTTAAAAAAAAAACTTGACAGCTAGCTCAGTCCTAGGTATAATGCTAGCAGCTGTCACCGGATGTGCTTTCCGGTCTGATGAGTCCGTGAGGACGAAACAGCCTCTACAAATAATTTTGTTTAATAAGTCCAATAGTTTATAAGGAAAGAATTACCTATGCGTAAAGGCGAAGAGCTGTTCACTGGTGTCGTCCC (double strand) [J23119 + UP]”: 0.042 µM.
J23109 came in with a Kd of 0.0461 µM.
With J23109 + 1/2UP the figure was 0.0648 µM; with J23109 + UP, 0.00744 µM.
Turning to J23112, the Kd worked out at 0.0508 µM.
Consider J23112 + 1/2UP, for which the Kd was determined as 0.0682 µM.
Turning to J23112 + UP, the dissociation constant (Kd) came out at 0.0126 µM.
With J23115 the figure was 0.055 µM.
As for J23115 + 1/2UP, the Kd is 0.0517 µM.
On to J23115 + UP, for which the Kd is 0.0381 µM.

For the origin of these results see publication PMC5664571.
